According to patent publication US20240117030A1 (Pfizer, published 2024):
Like-named read-outs stand apart in the source and are kept apart here. Values belong to the binder of their own block, whether it stands above or below them.

What was measured:
Assay in all cases: cell-based or functional assay
[1] = molecular target: recombinant human TSLP (glycosylated long form) (human, UniProt Q969D9 29-159)
human IL-33 mm2 Cys = molecular target: T1, human IL-33 mm2 Cys (human, UniProt O95760 112-270, limits assumed)
T1 sequence (looked up): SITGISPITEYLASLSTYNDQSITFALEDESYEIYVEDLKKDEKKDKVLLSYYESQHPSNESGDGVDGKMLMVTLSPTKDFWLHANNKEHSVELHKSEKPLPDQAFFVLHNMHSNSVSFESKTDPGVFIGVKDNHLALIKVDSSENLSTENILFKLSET

human IL-13 [2] = molecular target: T2, human IL-13 (human, UniProt P35225 35-146)
human IL-13 [3] = molecular target: T2, human IL-13; remark: listed apart in the source
recombinant human IL-13 [4] = molecular target: recombinant human IL-13 (human, UniProt P35225 35-146)
recombinant human IL-4 [5] = molecular target: T3, recombinant human IL-4 (human, UniProt P05112 25-153)
T3 sequence (looked up): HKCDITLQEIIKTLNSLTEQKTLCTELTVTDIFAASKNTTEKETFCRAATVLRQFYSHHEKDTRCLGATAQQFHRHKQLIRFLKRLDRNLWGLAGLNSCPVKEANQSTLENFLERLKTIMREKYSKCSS

recombinant human IL-13 [6] = molecular target: recombinant human IL-13 (human, UniProt P35225 35-146); remark: listed apart in the source
recombinant human IL-33 = molecular target: T4, recombinant human IL-33 (human, UniProt O95760 112-270, limits assumed)
T4 sequence (looked up): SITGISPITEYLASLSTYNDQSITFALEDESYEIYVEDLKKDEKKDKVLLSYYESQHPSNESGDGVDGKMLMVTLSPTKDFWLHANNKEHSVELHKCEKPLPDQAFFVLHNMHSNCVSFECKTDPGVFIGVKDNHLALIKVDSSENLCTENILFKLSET

recombinant human IL-4 [7] = molecular target: T5, recombinant human IL-4 (human, UniProt P05112 25-153); remark: listed apart in the source
T5 sequence (looked up): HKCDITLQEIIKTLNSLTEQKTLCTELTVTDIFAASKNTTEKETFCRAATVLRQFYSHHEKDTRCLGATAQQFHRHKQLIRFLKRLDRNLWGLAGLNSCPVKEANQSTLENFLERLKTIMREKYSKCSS

T2 sequence (P35225 35-146 limits assumed, form in doubt): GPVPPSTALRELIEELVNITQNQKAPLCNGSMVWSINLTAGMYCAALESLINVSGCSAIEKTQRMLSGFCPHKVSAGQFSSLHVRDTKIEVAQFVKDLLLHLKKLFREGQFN

a-TSLP TARC bioassay (fold change to TSLP-0001) [1]: 2.5 fold
B1: TSLP-0820 (antibody, human IgG1, lambda, V domains shown)
VH: EMQLVESGGGLVQPGGSLRLSCAASGFTFRTYGMHWVRQAPGKGLEWVAVIWYDGSNKHYADSVKGRFTISRDNAKNSLYLQMNSLRAEDTAVYYCARAPQWYLVHEAFDIWGQGTMVTVSS
VL: SYVLTQPPSVSVAPGQTARITCGGNNLGSKSVHWYQQKPGQAPVLVVYDDSDRPSWIPERFSGSNSGNTATLTISRGEAGDEADYYCQVWDSSSDHVVFGGGTKLTVLG

a-TSLP TARC bioassay (fold change to TSLP-0001) [1]: 6.4 fold
B2: TSLP-2004 (antibody, human IgG1, lambda, V domains shown)
VH: EMQLVESGGGLVQPGGSLRLSCAASGFTFRTYGMHWVRQAPGKGLEWVAVIWYDGSNKHYADSVKGRFTISRDNAKNSLYLQMNSLRAEDTAVYYCARAPQWYLVHEAFDIWGQGTMVTVSS
VL: SYVLTQPPSVSVAPGQTARITCGGNNLGSKSVHWYQQKPGQAPVLVVYDDSDRPSWIPERFSGSNSGNTATLTISRGEAGDEADYYCQVWDKSSDHVVFGGGTKLTVLG

a-TSLP TARC bioassay (fold change to TSLP-0001) [1]: 7.2 fold
B3: TSLP-2000 (antibody, human IgG1, lambda, V domains shown)
VH: EMQLVESGGGLVQPGGSLRLSCAASGFTFRTYGMHWVRQAPGKGLEWVAVIWYDGSNKHYADSVKGRFTISRDNAKNSLYLQMNSLRAEDTAVYYCARAPQWYLVHEAFDIWGQGTMVTVSS
VL: SYVLTQPPSVSVAPGQTARITCGGNNLGSKSVHWYQQKPGQAPVLVVYDDSDRPSWIPERFSGSNSGNTATLTISRGEAGDEADYYCQVWDSSSKHVVFGGGTKLTVLG

a-TSLP TARC bioassay (fold change to TSLP-0001) [1]: 5.1 fold
B4: TSLP-2002 (antibody, human IgG1, lambda, V domains shown)
VH: EMQLVESGGGLVQPGGSLRLSCAASGFTFRTYGMHWVRQAPGKGLEWVAVIWYDGSNKHYADSVKGRFTISRDNAKNSLYLQMNSLRAEDTAVYYCARAPQWYLVHEAFDIWGQGTMVTVSS
VL: SYVLTQPPSVSVAPGQTARITCGGNNLGSKSVHWYQQKPGQAPVLVVYDDKDRPSWIPERFSGSNSGNTATLTISRGEAGDEADYYCQVWDSKSDHVVFGGGTKLTVLG

IC50 [pM] versus human IL-33 mm2 Cys (HEK-Blue SEAP) (human IL-33 mm2 Cys): 115 pM
B8: IL33-0224 (antibody, human IgG1, V domains shown)
VH: EVQLVESGGGLVQPGGSLRLSCAASGFTFSSYWMYWVRQAPGKGLEWVAAITPNAGEDYYPESVKGRFTISRDNAKNSLYLQMNSLRAEDTAVYYCARGHYYYTSYSLGYWGQGTLVTVSS
VL: DIQMTQSPSSLSASVGDRVTITCRASQPISKHLDWYQQKPGKAPKLLIYFTNNLQTGVPSRFSGSGSGTDFTLTISSLQPEDFATYYCFQYNQGWTFGGGTKVEIK

IL-4 Induced CD23 Expression, potency of cytokine neutralization (recombinant human IL-4 [5]): 0.0137 nM
IL-13 Induced CD23 Expression, potency of cytokine neutralization (recombinant human IL-13 [6]): 0.00913 nM
IL-33 WT Activation of SEAP Reporter Cells, potency of cytokine neutralization (recombinant human IL-33): 0.013 nM
B11: IL13433-1279 (other)
VH 1: EVQLVESGGGLVQPGGSLRLSCAASGFTFSSYAMSWVRQAPGKGLEWVASISSGDTTYYPDSVKGRFTISRDNAKNSLYLQMNSLRAEDTAVYYCARNEGYYFGLTLWGQGTLVTVSS
VL 1: DIQMTQSPSSLSASVGDRVTITCKASESVDHFGWSLVHWYQQKPGKAPKLLIYRASNLESGVPSRFSGSGSGTDFTLTISSLQPEDFATYYCQQSNEDPWTFGGGTKVEIK
VH 2: EVTLRESGPALVKPTQTLTLTCTFSGFSLSNFGEGLSWIRQPPGKGLEWLAHIYWDDDKRYNPSLKSRLTISKDTSRNQVVLTMTNMDPVDTATYYCARRETVFYWYFDVWGQGTTVTVSS
VL 2: DIQMTQSPSSLSASVGDRVTITCRASQSVDEEGDSYMNWYQQKPGKAPKLLIYAASNLESGVPSRFSGSGSGTDFTLTISSLQPEDFATYYCQQSNKDPPTFGGGTKVEIK
VH 3: EVQLVESGGGLVQPGGSLRLSCAASGFTFSSYWMYWVRQAPGKGLEWVAAITPNAGEDYYPESVKGRFTISRDNAKNSLYLQMNSLRAEDTAVYYCARGQYYYTKYSLGYWGQGTLVTVSS
VL 3: DIQMTQSPSSLSASVGDRVTITCRASQPIHNHLDWYQQKPGKAPKLLIYFGKNLQEGVPSRFSGSGSGTDFTLTISSLQPEDFATYYCFQYKKGWSFGGGTKVEIK

Continued, binder first:

B5: IL33-0217 (antibody, human IgG1, kappa, V domains shown)
VH: EVQLVESGGGLVQPGGSLRLSCAASGFTFSSYWMYWVRQAPGKGLEWVAAITPNAGEDYYPESVKGRFTISRDNAKNSLYLQMNSLRAEDTAVYYCARGHYYYTSYSLGYWGQGTLVTVSS
VL: DIQMTQSPSSLSASVGDRVTITCRASQNINKHLDWYQQKPGKAPKLLIYFTNNLQTGVPSRFSGSGSGTDFTLTISSLQPEDFATYYCFQYNQGWTFGGGTKVEIKR
IC50 [pM] versus human IL-33 mm2 Cys (HEK-Blue SEAP) (human IL-33 mm2 Cys): 158 pM

B6: IL33-0220 (antibody, human IgG1, kappa, V domains shown)
VH: EVQLVESGGGLVQPGGSLRLSCAASGFTFSSYWMYWVRQAPGKGLEWVAAITPNAGEDYYPESVKGRFTISRDNAKNSLYLQMNSLRAEDTAVYYCARGHYYYTSYSLGYWGQGTLVTVSS
VL: DIQMTQSPSSLSASVGDRVTITCRASQNIYKHLDWYQQKPGKAPKLLIYFTNNLQTGVPSRFSGSGSGTDFTLTISSLQPEDFATYYCFQYNQGWTFGGGTKVEIKR
IC50 [pM] versus human IL-33 mm2 Cys (HEK-Blue SEAP) (human IL-33 mm2 Cys): 176 pM

B7: IL33-0219 (antibody, human IgG1, kappa, V domains shown)
VH: EVQLVESGGGLVQPGGSLRLSCAASGFTFSSYWMYWVRQAPGKGLEWVAAITPNAGEDYYPESVKGRFTISRDNAKNSLYLQMNSLRAEDTAVYYCARGHYYYTSYSLGYWGQGTLVTVSS
VL: DIQMTQSPSSLSASVGDRVTITCRASQNIQKHLDWYQQKPGKAPKLLIYFTNNLQTGVPSRFSGSGSGTDFTLTISSLQPEDFATYYCFQYNQGWTFGGGTKVEIKR
IC50 [pM] versus human IL-33 mm2 Cys (HEK-Blue SEAP) (human IL-33 mm2 Cys): 142 pM

B9: IL13-1307 (antibody, IgG1, V domains shown)
VH: EVQLVESGGGLVQPGGSLRLSCAASGFTFSSYAMSWVRQAPGKGLEWVASISSGDTTYYPDSVKGRFTISRDNAKNSLYLQMNSLRAEDTAVYYCARLDGYYFGFPYWGQGTLVTVSS
VL: DIQMTQSPSSLSASVGDRVTITCKASESVDHSGSSLMHWYQQKPGKAPKLLIYRASNLESGVPSRFSGSGSGTDFTLTISSLQPEDFATYYCQQSNEDPWTFGGGTKVEIK
CD23 IC50 [pM] (human IL-13 [2]): 214 pM
pSTAT6 IC50 [pM] (human IL-13 [2]): 225 pM
CD23: Fold bioactivity relative to IL13-0001 (human IL-13 [3]): 0.03 fold
CD23: Fold bioactivity relative to IL13-1307 (human IL-13 [3]): 1 fold
CD23 IC50 [pM] (human IL-13 [3]): 306 pM
pSTAT6: Fold bioactivity relative to IL13-0001 (human IL-13 [3]): 0.7 fold
pSTAT6: Fold bioactivity relative to IL13-1307 (human IL-13 [3]): 1 fold
pSTAT6 IC50 [pM] (human IL-13 [3]): 140 pM

B10: IL13-0001 (antibody, human IgG1, kappa, V domains shown)
VH: EVQLVESGGGLVQPGGSLRLSCAASGFTFSSYAMSWVRQAPGKGLEWVASISSGDTTYYPDSVKGRFTISRDNAKNSLYLQMNSLRAEDTAVYYCARNEGYYFGLTLWGQGTLVTVSS
VL: DIQMTQSPSSLSASVGDRVTITCKASESVDHFGWSLVHWYQQKPGKAPKLLIYRASNLESGVPSRFSGSGSGTDFTLTISSLQPEDFATYYCQQSNEDPWTFGGGTKVEIKR
a-hIL-13 bioassay (IC50, pM) (recombinant human IL-13 [4]): 4.83 pM

B12: IL13-1283 (antibody, human IgG1, kappa, V domains shown)
VH: EVQLVESGGGLVQPGGSLRLSCAASGFTFISYAMSWVRQAPGKGLEWVASISSGGNTYYPDSVKGRFTISRDNAKNSLYLQMNSLRAEDTAVYYCARLDGYYFGFAYWGQGTLVTVSS
VL: DIQMTQSPSSLSASVGDRVTITCKASESVDNYGKSLMHWYQQKPGKAPKLLIYRASNLESGVPSRFSGSGSGTDFTLTISSLQPEDFATYYCQQSNEDPWTFGGGTKVEIKR
CD23 IC50 [pM] (human IL-13 [2]): 261 pM
pSTAT6 IC50 [pM] (human IL-13 [2]): 427 pM

B13: IL4-0002 (antibody, human IgG1, kappa)
heavy: EVTLRESGPALVKPTQTLTLTCTFSGFSLSNFGEGLSWIRQPPGKGLEWLAHIYWDDDKRYNPSLKSRLTISKDTSRNQVVLTMTNMDPVDTATYYCARRETVFYWYFDVWGQGTTVTVSSASTKGPSVFPLAPSSKSTSGGTAALGCLVKDYFPEPVTVSWNSGALTSGVHTFPAVLQSSGLYSLSSVVTVPSSSLGTQTYICNVNHKPSNTKVDKKVEPKSCDKTHTCPPCPAPEAAGAPSVFLFPPKPKDTLMISRTPEVTCVVVDVSHEDPEVKFNWYVDGVEVHNAKTKPREEQYNSTYRVVSVLTVLHQDWLNGKEYKCKVSNKALPAPIEKTISKAKGQPREPQVYTLPPSREEMTKNQVSLTCLVKGFYPSDIAVEWESNGQPENNYKTTPPVLDSDGSFFLYSKLTVDKSRWQQGNVFSCSVMHEALHNHYTQKSLSLSPGK
light: DIQMTQSPSSLSASVGDRVTITCKASQSVDEDGDSYMNWYQQKPGKAPKLLIYAASNLESGVPSRFSGSGSGTDFTLTISSLQPEDFATYYCQQSNEDPPTFGGGTKVEIKRTVAAPSVFIFPPSDEQLKSGTASVVCLLNNFYPREAKVQWKVDNALQSGNSQESVTEQDSKDSTYSLSSTLTLSKADYEKHKVYACEVTHQGLSSPVTKSFNRGEC
a-hIL-4 bioassay IC50, pM) (recombinant human IL-4 [7]): 3.42 pM

B14: IL13-1306 (antibody, mouse IgG1, V domains shown)
VH: EVKLVESGGDLVKPGGSLKLSCAASGFTFSSYAMSWVRQSPDKRLEWVASISSGDTTYYPDSVKGRFTISRDNARNILYLQMTSLRSEDTAMYYCARLDGYYFGFPYWGQGTLVTVSA
VL: DTVLTQSPASLAVSLGQRATISCKASESVDHSGSSLMHWYQQKPGQSPKLLIYRASNLESGIPARFSGSGSRTDFTLTINPVEADDVATYYCQQSNEDPWTFGGGTKLEIK
pSTAT6 IC50 [pM] (human IL-13 [2]): 290 pM
